Source: US20170096474A1 (published 2017)

Tests used:
[1] = biological target: T1, BoNT/B binding domain (HC), yeast displayed (Clostridium botulinum, UniProt P10844 858-1291); assay: soluble scFv or IgG on yeast-displayed BoNT/B domains
T1 sequence: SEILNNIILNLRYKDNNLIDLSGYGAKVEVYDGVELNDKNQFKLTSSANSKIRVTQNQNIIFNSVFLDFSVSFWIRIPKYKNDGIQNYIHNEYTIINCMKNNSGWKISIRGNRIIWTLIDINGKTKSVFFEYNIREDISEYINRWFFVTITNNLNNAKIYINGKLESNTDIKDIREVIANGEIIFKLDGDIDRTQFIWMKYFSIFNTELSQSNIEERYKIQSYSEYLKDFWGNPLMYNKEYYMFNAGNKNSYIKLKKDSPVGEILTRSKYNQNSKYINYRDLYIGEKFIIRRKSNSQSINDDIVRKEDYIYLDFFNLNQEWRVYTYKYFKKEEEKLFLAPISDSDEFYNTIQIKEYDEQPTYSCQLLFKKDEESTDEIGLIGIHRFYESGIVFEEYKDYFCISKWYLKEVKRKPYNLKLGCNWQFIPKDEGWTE

[2] = biological target: T2, BoNT/B light chain (LC), yeast displayed (Clostridium botulinum, UniProt P10844 1-441); assay: flow cytometry, mAb staining of yeast-displayed BoNT/B domains
T2 sequence: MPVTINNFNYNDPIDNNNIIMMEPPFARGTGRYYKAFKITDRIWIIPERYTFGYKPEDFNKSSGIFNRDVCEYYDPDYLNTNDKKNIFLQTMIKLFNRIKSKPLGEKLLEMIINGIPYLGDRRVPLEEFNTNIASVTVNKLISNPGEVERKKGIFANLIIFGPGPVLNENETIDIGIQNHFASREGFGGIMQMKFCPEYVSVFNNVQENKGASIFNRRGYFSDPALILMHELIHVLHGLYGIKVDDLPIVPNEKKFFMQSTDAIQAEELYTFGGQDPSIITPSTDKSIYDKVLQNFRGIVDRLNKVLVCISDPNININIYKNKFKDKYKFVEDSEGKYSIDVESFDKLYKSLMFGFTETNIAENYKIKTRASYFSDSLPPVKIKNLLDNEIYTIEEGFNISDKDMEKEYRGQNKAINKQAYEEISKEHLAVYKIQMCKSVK

[3] = biological target: T1, BoNT/B binding domain (HC), yeast …; assay: as above
[4] = biological target: T3, BoNT/B translocation domain (HN), yeast displayed (Clostridium botulinum, UniProt P10844 442-857); assay: IgG/Fab on yeast-displayed toxin domain, flow cytometry
T3 sequence: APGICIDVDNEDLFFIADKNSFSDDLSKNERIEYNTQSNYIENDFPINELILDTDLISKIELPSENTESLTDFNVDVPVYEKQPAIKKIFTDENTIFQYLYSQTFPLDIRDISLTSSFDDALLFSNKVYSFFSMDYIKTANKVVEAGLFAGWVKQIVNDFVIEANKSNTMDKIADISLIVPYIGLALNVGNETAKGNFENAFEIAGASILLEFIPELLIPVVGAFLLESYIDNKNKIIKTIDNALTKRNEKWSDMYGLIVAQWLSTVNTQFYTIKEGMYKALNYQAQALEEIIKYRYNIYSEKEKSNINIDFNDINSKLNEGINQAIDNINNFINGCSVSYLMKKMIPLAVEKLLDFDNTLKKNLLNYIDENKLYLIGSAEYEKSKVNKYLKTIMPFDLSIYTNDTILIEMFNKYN

B1: 2B30 scFv (scFv)
scFv: EVQLVESGGGVVQPGRSLRLSCAASGFTFRRNAIHWVRQAPGKGLEWVAVISYDGVNKYYAASVKGRFAISRDNAKNTLFLQMNSLRPEDSAIYYCARDVSEYGDYVGHFDYWGQGTLVTVSSGGGGSGGGGSGGGGSSYELMQLPSASGTPGQRVSISCSGSSSNIGSNPVNWYQQLPGTAPKLLIYSNNHRPSGVPDRFSGSKSGTSASLAISGLQSEDEADYYCAAWDGSLNGHVVFGGGTKLTVL
binding result [1]: binds

B2: 1B18 IgG (antibody, V domains shown)
VH: EVQLVQSGGGLVQPGGSRRLSCAASGFYFNAYWMTWVRQAPGKGLEWVANINLDGTEIYYLDSVKGRFTVSRDNVKNSVFLQMSSLRVEDTAVYFCARLEWGGRNGWVSPWGQGTLVTVSS
VL: DVVMTQSPSSVSASVGDRVTITCRASQSISSYLNWYQQRPGKAPKLLIFAASSLQSAVPSRFSGSGSGTDFTLTISSLQPEDFATYYCQQSYSTPPTFGQGTKVEIKR
binding result [2]: no binding | binding result [3]: no binding | binding result [4]: binds
